{"source": "paper PMC12292926", "about": "“PELP1 coordinates the modular assembly and enzymatic activity of the rixosome complex” (Science Advances, 2025)", "key": {"[1]": {"target": "recombinant human histone octamer (human) (UniProt P0C0S8)", "assay": "SEC; histone chaperone assay: MBP-PELP1 variant and histone octamer mixed at 1:1 or 2:1 in >1.2 M NaCl, dialysed stepwise to 0.3 M NaCl, 10 mM Hepes pH 7.5, 4°C; S200 10/300 gel filtration in the low-salt buffer; SDS-PAGE of fractions"}, "[2]": {"target": "T1, exogenous rixosome subcomplex (PELP1, TEX10, WDR18, and SENP3) purified by GFP-TEX10 wild type (human, UniProt Q9NXF1 1-929; Q8IZL8 1-1130; Q9BV38 1-432; Q9H4L4 1-574)", "T1 construct": "human TEX10, wild type, bait of the subcomplex; human PELP1, exogenous; human WDR18, exogenous; human SENP3, exogenous; copy numbers in this preparation are not measured; also called immobilized TEX10 rixosome subcomplexes; TEX10 subcomplexes; not shown: GFP, N-terminal, kept; copies: + + +", "assay": "pull-down; GFP-TEX10 rixosome subcomplexes affinity purified from HEK293FT and kept on anti-GFP Sepharose (ATP and low-salt washes); incubated with recombinant ncPRC1.4 (0.177 mg/ml) in 0.2 ml low-salt buffer (50 mM Hepes pH 7.5, 200 mM NaCl, 5 mM MgCl2, 10% glycerol), 1 hour, 4°C; Western blot", "conditions": "both partners purified"}, "[3]": {"target": "T2, N-terminal 6× His-tagged human SENP3 protease domain (302 to 574aa) (human, UniProt Q9H4L4 302-574)", "T2 construct": "E. coli codon-optimized gene (Genscript) in pET11a; source: E. coli, purified (His60 Ni resin, S200 gel filtration)", "T2 sequence (Q9H4L4 302-574)": "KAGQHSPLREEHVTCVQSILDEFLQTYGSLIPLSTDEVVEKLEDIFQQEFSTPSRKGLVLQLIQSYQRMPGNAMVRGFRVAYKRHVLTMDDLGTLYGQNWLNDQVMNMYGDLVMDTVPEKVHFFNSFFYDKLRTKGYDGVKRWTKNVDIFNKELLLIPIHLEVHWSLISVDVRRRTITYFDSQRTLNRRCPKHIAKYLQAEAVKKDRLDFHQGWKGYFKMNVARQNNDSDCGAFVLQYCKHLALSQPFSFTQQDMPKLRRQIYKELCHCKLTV", "assay": "SEC; purified components mixed at equimolar amounts (20 to 80 μM), 4°C for at least 30 min; S200 10/300 analytical column; SDS-PAGE of fractions", "conditions": "both partners purified"}, "[4]": {"target": "T3, MBP-SENP3^(311–574 C532S), fixed-arm MBP fusion of the SENP3 catalytic domain (human, UniProt Q9H4L4 311-574, C532S)", "T3 construct": "human SENP3 catalytic domain with the three-helix bundle, Glu311-Val574, catalytic-dead C532S; In the PDB model MBP residues are labeled 1 to 370 and SENP3 residues 1311 to 1574; also called MBP(wt)-SENP3; pMALX(wt)-SENP3 (Glu311-Val574/C532S); source: E. coli Rosetta2 (DE3), purified (amylose resin, Superdex200 SEC); not shown: MBP (fixed-arm fusion, pMALX(wt)), N-terminal, kept", "T3 sequence (Q9H4L4 311-574 C532S)": "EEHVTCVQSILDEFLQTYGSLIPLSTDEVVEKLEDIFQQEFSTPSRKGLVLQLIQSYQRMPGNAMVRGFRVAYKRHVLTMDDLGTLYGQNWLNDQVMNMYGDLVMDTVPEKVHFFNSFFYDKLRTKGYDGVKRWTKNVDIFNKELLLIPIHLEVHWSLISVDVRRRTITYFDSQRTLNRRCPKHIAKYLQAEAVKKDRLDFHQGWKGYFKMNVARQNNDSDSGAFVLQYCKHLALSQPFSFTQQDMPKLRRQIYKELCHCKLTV", "assay": "crystal structure; MBP-SENP3 (311-574, C532S) with 1.5x molar excess of sPELP1 peptide; sitting drop, 0.085 to 0.1 M Hepes pH 7.5, 17 to 20% PEG8000, 4°C; 2.93 Å", "conditions": "both partners purified"}}}
{"molecule": "MBP-PELP1^887–966 (from UniProt Q8IZL8 887-966) (domain or fragment)", "values": [{"measurement": "stoichiometry N (copies per histone octamer)", "setting": "[1]", "value": 2}]}
{"molecule": "MBP-PELP1^800–1130 (from UniProt Q8IZL8 800-1130) (domain or fragment)", "values": [{"measurement": "stoichiometry N (copies per histone octamer)", "setting": "[1]", "value": 2}]}
{"molecule": "recombinant human noncanonical PRC1.4 complex (RING1B-BMI1-RYBP) (complex, human RING1B, full length; human BMI1, full length; human RYBP, full length; also called ncPRC1.4; not shown: SUMO-10xHis, N-terminal, cleaved; copies: + +) chain 1: MSQAVQTNGTQPLSKTWELSLYELQRTPQEAITDGLEIVVSPRSLHSELMCPICLDMLKNTMTTKECLHRFCADCIITALRSGNKECPTCRKKLVSKRSLRPDPNFDALISKIYPSRDEYEAHQERVLARINKHNNQQALSHSIEEGLKIQAMNRLQRGKKQQIENGSGAEDNGDSSHCSNASTHSNQEAGPSNKRTKTSDDSGLELDNNNAAMAIDPVMDGASEIELVFRPHPTLMEKDDSAQTRYIKTSGNATVDHLSKYLAVRLALEELRSKGESNQMNLDTASEKQYTIYIATASGQFTVLNGSFSLELVSEKYWKVNKPMELYYAPTKEHK chain 2: MHRTTRIKITELNPHLMCVLCGGYFIDATTIIECLHSFCKTCIVRYLETSKYCPICDVQVHKTRPLLNIRSDKTLQDIVYKLVPGLFKNEMKRRRDFYAAHPSADAANGSNEDRGEVADEDKRIITDDEIISLSIEFFDQNRLDRKVNKDKEKSKEEVNDKRYLRCPAAMTVMHLRKFLRSKMDIPNTFQIDVMYEEEPLKDYYTLMDIAYIYTWRRNGPLPLKYRVRPTCKRMKISHQRDGLTNAGELESDSGSDKANSPAGGIPSTSSCLPSPSTPVQSPHPQFPHISSTMNGTSNSPSGNHQSSFANRPRKSSVNGSSATSSG chain 3: MTMGDKKSPTRPKRQAKPAADEGFWDCSVCTFRNSAEAFKCSICDVRKGTSTRKPRINSQLVAQQVAQQYATPPPPKKEKKEKVEKQDKEKPEKDKEISPSVTKKNTNKKTKPKSDILKDPPSEANSIQSANATTKTSETNHTSRPRLKNVDRSTAQQLAVTVGNVTVIITDFKEKTRSSSTSSSTVTSSAGSEQQNQSSSGSESTDKGSSRSSTPKGDMSAVNDESF", "values": [{"measurement": "binding result", "setting": "[2]", "value": "binds"}]}
{"molecule": "PRPAFVHYDKEEASDVEISLESDSDDSVVIVPEGLP (domain or fragment, human, UniProt Q8IZL8 761-796, looked up, human PELP1 IDR, residues 761 to 796 with the SLiM; legends and the purification paragraph print 761 to 796aa; also called MBP-PELP1^SLiM; PELP1^SLiM-containing peptide 761 to 796aa; source: E. coli, purified (His60 Ni resin, S200 gel filtration); not shown: MBP, N-terminal, kept)", "note": "[6×-HIS-MBP-PELP1 761 to 796aa (SENP3 binding motif peptide)]", "values": [{"measurement": "binding result", "setting": "[3]", "value": "binds"}]}
{"molecule": "AFVHYDKEEASDVEISLE (peptide, UniProt Q8IZL8 764-781, looked up, also called short (s) PELP1; PELP1^SLiM peptide (764 to 781aa); source: synthetic peptide (GenScript))", "note": "[sPELP1 peptide (PELP1 residues Ala764-Glu781)]", "values": [{"measurement": "binding result", "setting": "[4]", "value": "binds"}]}
